Reference: EP4631972A1, “SITE-SPECIFIC COUPLED PEGYLATED INTERLEUKIN-2 MUTANT WITH RECEPTOR AFFINITY PREFERENCE AND USE THEREOF” (priority 2022, dated 2024)

Experiments:
Treg cells [1] = assay: P-STAT5 activation in Treg cells of human PBMCs (flow cytometry); assay type: cell-based; conditions: P-STAT5 MFI in CD3+/CD4+/CD25+ cells of human PBMCs, 30 min stimulation
Experimental: In the example, the activation effect of each mutant prepared in Example 6 on P-STAT5 in different cell subsets (Tregs, CD8+T cells, NK cells) from human PBMCs (Miaoshun Biotechnology) was detected.
Human PBMC cells were thawed and resuspended to 1.5×10^6 cells/ml in RPMI1640 medium containing 10% FBS. 100 µl was added to each well of a V-bottom 96-well culture plate. Each IL-2 mutant prepared in Example 6 was diluted 10-fold in series: 1000 nM was used as the working concentration for the first well, and then 100 µl/well of each serial dilution was added to each cultured cell, stimulated at 37°C for 30 min, and the reaction was terminated on ice. The cells were treated with a commercial fixative and permeabilization agent (BD biosciences 558049 & 558050), and stained with antibodies against CD3, CD4, CD25, and CD8 according to conventional methods. P-STAT5 antibody staining was also performed (Table 7) to detect the mean fluorescence intensity (MFI) of P-STAT5 in CD3+/CD4+/CD25+ (Treg cells) and CD8+/CD3+ cells ([…]) by flow cytometry.

Treg cells [2] = assay: Pharmacodynamic (PD) study in mice, peripheral Treg cells; assay type: in vivo, Balb/c mice; conditions: 1 mg/kg s.c. single administration
Experimental: In this example, the pharmacodynamics (PD) of each IL-2 mutant obtained in Example 6 was studied in mice after a single administration to mice. SPF grade Balb/c mice were purchased and randomly divided into groups according to body weight, with 3 mice in each group. Drug administration started on the day of grouping. The dosing and grouping information is shown in Table 9, where G1-G5 were administered once, G6 and G7 were administered once a day, for a total of three doses. 30 µl of blood was taken from each group of mice, for PEGylated IL2 mutants and the negative control, blood was collected on day 0 (pre-administration), day 2, 3, 4, 5, 6 and 7 (only for G3, G4 and G5), and for IL2 and IL2-N88R, blood was collected on day 0 (pre-administration), day 1, 2 and 3. The number of each cell subpopulation was measured by flow cytometry. Antibodies against the staining marker used in flow cytometry are shown in Table 10, and the gating settings are shown in Table 11. Table 9 Dosing and grouping table for single-dose PD study in mice

Treg cells [3] = assay: Pharmacodynamic study in cynomolgus monkeys, peripheral Treg cells; assay type: in vivo; conditions: doses ≤400 µg/kg
Excerpt: For information on administration and grouping, see Table 14.

[4] = mouse, in vivo, sc, 1 mg/kg
Experimental: (§3) Balb/c mice were purchased, with 4 mice in each group. Each IL-2 mutant to be tested was administered subcutaneously once at a dose of 1 mg/kg. Blood was collected from the orbit at different time points after administration, and the plasma was separated and the plasma drug concentration was detected by ELISA. The main pharmacokinetic parameters were calculated, and C-T curve was plotted.

[5] = Pharmacokinetic study in cynomolgus monkeys; conditions: cynomolgus monkey
Experimental: Blood was collected before and after administration (4h, 8h, 24h, 48h, 72h, 120h, 168h, 240h, 336h) in the first cycle and after administration (8h, 24h, 48h, 72h, 120h, 168h, 240h) in the second cycle to detect plasma drug concentration.

[6] = Pharmacokinetic study in mice, single administration, plasma concentration by ELISA; conditions: 1 mg/kg s.c. single administration
Experimental: as §3

IL-2αβγ triple receptor = target: T1, IL-2αβγ triple receptor (Homo sapiens, UniProt P01589+P14784+P31785); assay: STAT5 reporter gene assay, activation of IL-2αβγ triple receptor in 293EC18/αβγ/JAK3/STAT5 cells; assay type: cell-based; conditions: Example 3, Table 2 and Figure 3
T1 construct: Uniprot P01589 1Met-551Ile constructed into plasmid pcDNA3.1/zeo; Uniprot P14784 1Met-551Val constructed into plasmid pcDNA3.1(+); Uniprot P31785 1Met-551Thr was constructed into plasmid pcDNA3.1/zeo; expressed in transfected cells; host or cells: 293EC18 cells, transient co-transfection with pCMV/JAK3 and PGL4.52/STAT5RE
T1 sequence (P01589 22-272): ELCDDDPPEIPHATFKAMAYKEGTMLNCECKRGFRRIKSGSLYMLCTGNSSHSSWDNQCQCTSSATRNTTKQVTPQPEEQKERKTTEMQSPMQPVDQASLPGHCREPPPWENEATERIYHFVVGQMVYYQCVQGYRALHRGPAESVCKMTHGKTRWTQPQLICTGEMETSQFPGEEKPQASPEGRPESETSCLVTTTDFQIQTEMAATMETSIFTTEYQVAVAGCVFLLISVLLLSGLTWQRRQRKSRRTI
T1 sequence (P14784 27-551): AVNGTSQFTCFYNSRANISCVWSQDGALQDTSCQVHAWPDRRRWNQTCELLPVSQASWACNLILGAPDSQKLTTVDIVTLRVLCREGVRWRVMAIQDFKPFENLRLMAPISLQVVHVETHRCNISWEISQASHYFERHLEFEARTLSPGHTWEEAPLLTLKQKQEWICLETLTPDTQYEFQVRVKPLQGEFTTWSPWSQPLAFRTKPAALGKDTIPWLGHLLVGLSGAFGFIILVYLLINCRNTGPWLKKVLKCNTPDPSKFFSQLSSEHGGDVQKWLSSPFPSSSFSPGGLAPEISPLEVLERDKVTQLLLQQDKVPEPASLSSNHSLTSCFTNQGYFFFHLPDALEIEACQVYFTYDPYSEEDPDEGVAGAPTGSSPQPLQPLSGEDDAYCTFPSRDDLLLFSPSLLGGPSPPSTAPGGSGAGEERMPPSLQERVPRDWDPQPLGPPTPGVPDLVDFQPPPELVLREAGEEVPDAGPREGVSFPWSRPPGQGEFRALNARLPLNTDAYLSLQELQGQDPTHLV
T1 sequence (P31785 23-369): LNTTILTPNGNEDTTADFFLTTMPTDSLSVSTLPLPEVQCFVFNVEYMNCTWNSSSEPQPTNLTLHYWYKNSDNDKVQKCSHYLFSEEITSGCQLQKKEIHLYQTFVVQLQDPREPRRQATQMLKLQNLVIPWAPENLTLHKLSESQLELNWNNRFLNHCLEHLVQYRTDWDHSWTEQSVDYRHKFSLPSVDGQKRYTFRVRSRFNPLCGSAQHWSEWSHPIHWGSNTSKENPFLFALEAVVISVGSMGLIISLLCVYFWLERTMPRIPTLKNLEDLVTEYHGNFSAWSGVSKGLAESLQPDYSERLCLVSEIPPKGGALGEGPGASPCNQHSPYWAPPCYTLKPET
Experimental: (§1) Since the binding of IL-2 to the β and γ subunits of its receptor induces STAT5 phosphorylation, which subsequently leads to dimerization and translocation into the nucleus to promote target gene transcription, this example evaluates the ability of the mutant IL-2 polypeptides to induce signaling through the IL-2 receptor by measuring STAT5 phosphorylation.
Adherent 293EC18 cells were cultured to about 90% confluence using conventional methods. After trypsin digestion, the cells were resuspended in cell culture medium to 4×10^5 cells/ml and 50 µl/well were added to two 96-well cell culture plates. After incubation at 37°C for 48 h, the supernatant was aspirated and fresh culture medium was added. […]
Each IL2 mutant was diluted 4-fold in a gradient manner using PBS buffer, with a total of 11 dilutions and a starting concentration of 65.2 nM. […] Bio-Lite Luciferase Assay System reagents that have been mixed and equilibrated to room temperature were added to the cell culture plates to be tested at 100 µl/well, placed on a microplate shaker at 450 rpm to mix for 2 minutes, then allowed to stand at room temperature for 3 minutes, and the chemiluminescence value was detected with an enzyme plate reader.
(§2) The logarithm of the final concentration of each IL-2 mutant sample was used as the X-axis, and the chemiluminescence detection results were used as the Y-axis for plotting. Data were analyzed using the four-parameter logistic regression model in GraphPad Prism 9. Table 2 EC50 values for the activation of the IL-2αβγ triple receptor by PEG-IL-2 mutants as determined by a reporter gene assay.
According to the method of Example 3, each polyethylene glycol-modified mutant obtained in this example was assessed for the binding preference to the IL2 receptors by a reporter assay. Table 4 EC50 values for the activation of the IL-2αβγ triple receptor by PEG-IL-2 mutants as determined by a reporter gene assay. […]

IL-2βγ dual receptor = target: T2, IL-2βγ dual receptor (Homo sapiens, UniProt P14784+P31785); assay: STAT5 reporter gene assay, activation of IL-2βγ dual receptor in 293EC18/βγ/JAK3/STAT5 cells; assay type: cell-based
T2 construct: Uniprot P14784 1Met-551Val was constructed into plasmid pcDNA3.1(+); Uniprot P31785 1Met-551Thr was constructed into plasmid pcDNA3.1/zeo; expressed in transfected cells; host or cells: 293EC18 cells, transient co-transfection with pCMV/JAK3 and PGL4.52/STAT5RE
T2 sequence (P14784 27-551): T1 sequence (P14784 27-551)
T2 sequence (P31785 23-369): T1 sequence (P31785 23-369)
Experimental: as §1
Adherent 293EC18 cells were cultured to about 90% confluence using conventional methods. After trypsin digestion, the cells were resuspended in cell culture medium to 4×10^5 cells/ml and 50 µl/well were added to two 96-well cell culture plates. After incubation at 37°C for 48 h, the supernatant was aspirated and fresh culture medium was added. According to the manufacturer's method, four plasmids, pcDNA3.1(+)/CD122 (constructed by Nanjing Novoacine Biotechnology Co., Ltd, Uniprot P14784 1Met-551Val was constructed into plasmid pcDNA3.1(+)), pcDNA3.1/puro/CD132 (constructed by Nanjing Novoacine Biotechnology Co., Ltd, Uniprot P31785 1Met-551Thr was constructed into plasmid pcDNA3.1/zeo), pCMV/JAK3 (Sino Biological), and PGL4.52/STAT5RE (Promega) were transiently transfected into 293EC18 cells using a cationic transfection reagent (ExFect Transfection Reagent, Vazyme). The obtained cells were named 293EC18/βγ/JAK3/STAT5 cells. Alternatively, five plasmids, pcDNA3.1/zeo/CD25 (constructed by Nanjing Novoacine Biotechnology Co., Ltd, Uniprot P01589 1Met-551Ile constructed into plasmid pcDNA3.1/zeo), pcDNA3.1(+)/CD122 (constructed by Nanjing Novoacine Biotechnology Co., Ltd, Uniprot P14784 1Met-551Val constructed into plasmid pcDNA3.1(+)), pcDNA3.1/puro/CD132 (constructed by Nanjing Novoacine Biotechnology Co., Ltd, UniprotP31785 1Met-551Thr constructed into plasmid pcDNA3.1/zeo), pCMV/JAK3 (Sino Biological), and PGL4.52/STAT5RE (Promega) were transiently transferred into 293EC18 cells, and the obtained cells were named 293EC18/αβγ/JAK3/STAT5 cells. The transfected cells were incubated at 37°C and 5% CO2 for another 6 h.
Each IL2 mutant was diluted 4-fold in a gradient manner using PBS buffer, with a total of 11 dilutions and a starting concentration of 65.2 nM. In the above cell culture plates, 50 µl/well of each of the serially diluted IL2 mutant samples was added in duplicate. Then, the cell culture plate was placed in an incubator at 37°C and 5% CO2 for overnight culture. The cell culture plates were kept at room temperature for 20 ± 5 minutes to equilibrate the plates to room temperature. Bio-Lite Luciferase Assay System reagents that have been mixed and equilibrated to room temperature were added to the cell culture plates to be tested at 100 µl/well, placed on a microplate shaker at 450 rpm to mix for 2 minutes, then allowed to stand at room temperature for 3 minutes, and the chemiluminescence value was detected with an enzyme plate reader.
as §2
According to the method of Example 3, each polyethylene glycol-modified mutant obtained in this example was assessed for the binding preference to the IL2 receptors by a reporter assay. Table 4 EC50 values for the activation of the IL-2αβγ triple receptor by PEG-IL-2 mutants as determined by a reporter gene assay.
Referring to Example 3, the phosphorylation of STAT5 was used to evaluate the ability of the PEG-modified IL-2 mutants having a non-natural amino acid mutation prepared in Example 14 to induce signal transduction via the IL-2 receptor. […]

[7] = female, first-cycle dosing 50 µg/kg s.c.
[8] = female, second-cycle dosing 400 µg/kg s.c.
[9] = male, first-cycle dosing 50 µg/kg s.c.
[10] = male, second-cycle dosing 400 µg/kg s.c.

With “60K-1PEG-IL2-N88R-N77C: IL2-N88R-N77C with 60 kDa PEG conjugated to the cysteine at position 77” the EC50 (Treg cells [1]) was 35.1 nM, the “activation peak of Treg proportion, time” value (Treg cells [2]) was 6 days and the “increase in Treg proportion at peak” value (Treg cells [2]) was “about 15 fold”. The “activation and proliferation of peripheral blood Treg cells” value (Treg cells [3]) was “clear activation and proliferation”, the T1/2 [4] was 20.78 ± 1.92 h and the AUC inf [5, 7] was 181.7098 µg·h/mL. The AUClast [5, 7] was 148.6109 µg·h/mL, the CL [5, 7] was 0.28 and the Cmax [5, 7] was 701.0718 ng/mL. It also gave an MRT [5, 7] of 128.4211 h, a Tmax [5, 7] of 72 h and an AUC inf [5, 8] of 2158.472 µg·h/mL. The AUClast [5, 8] was 1360.931 µg·h/mL, the CL [5, 8] was 0.19 and the Cmax [5, 8] was 10419.65 ng/mL. It also gave an MRT [5, 8] of 101.9 h, a Tmax [5, 8] of 8 h and an AUC inf [5, 9] of 213.0031 µg·h/mL. For the same molecule, the AUClast [5, 9] was 157.7992 µg·h/mL, the CL [5, 9] was 0.23 and the Cmax [5, 9] was 815.2866 ng/mL. For the same molecule, the MRT [5, 9] was 135.9233 h, the Tmax [5, 9] was 48 h and the AUC inf [5, 10] was 2122.205 µg·h/mL. For the same molecule, the AUClast [5, 10] was 1412.112 µg·h/mL, the CL [5, 10] was 0.19 and the Cmax [5, 10] was 10199.77 ng/mL. For the same molecule, the MRT [5, 10] was 100.7 h, the Tmax [5, 10] was 8 h and the AUC inf [6] was 392.06252 ± 33.89153 µg·h/mL. It also gave an AUClast [6] of 380.55249 ± 34.19595 µg·h/mL, a CL [6] of 2.56±0.22 and a Cmax [6] of 6633.54 ± 581.69 ng/mL. For the same molecule, the MRT [6] was 39.45 ± 0.44 h, the Tmax [6] was 8 to 24 h and the mean half-life [6] was 20.78 h. The “mean residence time (MRT)” value [6] was 39.45 h.

B1: 80k-1PEG-IL2-N88R-N33C: IL-2 mutant N88R, N33C with one 80k PEG conjugated to cysteine 33 (conjugate)
chain: APTSSSTKKTQLQLEHLLLDLQMILNGINNYKC(PEG 80 kDa)PKLTRMLTFKFYMPKKATELKHLQCLEEELKPLEEVLNLAQSKNFHLRPRDLISRINVIVLELKGSETTFMCEYADETATIVEFLNRWITFSQSIISTLT
With B1 the “activation of the IL-2Rαβγ triple receptor compared with the control IL2-N88R” value (IL-2αβγ triple receptor) was “even stronger activation”, the “activation effect on the IL-2Rβγ dual receptor compared with control IL-2 N88R” value (IL-2βγ dual receptor; Figure 1, concentration of 65.2 nM) was “lower activation effects” and the “activation effect on / affinity to IL-2Rβγ dual receptor compared with control IL-2 N88R” value (IL-2βγ dual receptor; Figure 2, all concentrations) was “further reduced the affinity to IL-2Rβγ”.
